Data: PMC4881948, “X-Ray Solution Scattering Study of Four Escherichia coli Enzymes Involved in Stationary-Phase Metabolism” (PLoS ONE, 2016)

B1: glutamate decarboxylase (GadA) from E. coli (enzyme)
chain: MDQKLLTDFRSELLDSRFGAKAISTIAESKRFPLHEMRDDVAFQIINDELYLDGNARQNLATFCQTWDDENVHKLMDLSINKNWIDKEEYPQSAAIDLRCVNMVADLWHAPAPKNGQAVGTNTIGSSEACMLGGMAMKWRWRKRMEAAGKPTDKPNLVCGPVQICWHKFARYWDVELREIPMRPGQLFMDPKRMIEACDENTIGVVPTFGVTYTGNYEFPQPLHDALDKFQADTGIDIDMHIDAASGGFLAPFVAPDIVWDFRLPRVKSISASGHKFGLAPLGCGWVIWRDEEALPQELVFNVDYLGGQIGTFAINFSRPAGQVIAQYYEFLRLGREGYTKVQNASYQVAAYLADEIAKLGPYEFICTGRPDEGIPAVCFKLKDGEDPGYTLYDLSERLRLRGWQVPAFTLGGEATDIVVMRIMCRRGFEMDFAELLLEDYKASLKYLSDHPKLQGIAQQNSFKHT
notes: glutamate decarboxylase GadA, E. coli; Hexamer at pH 4.6, mixture of hexamers and dimers at pH 7.5; also called GadA low-salt
B2: Class I fructose-1,6-bisphosphate aldolase (FbaB) from E. coli (enzyme, UniProt P0A991 1-350, looked up)
chain: MTDIAQLLGKDADNLLQHRCMTIPSDQLYLPGHDYVDRVMIDNNRPPAVLRNMQTLYNTGRLAGTGYLSILPVDQGVEHSAGASFAANPLYFDPKNIVELAIEAGCNCVASTYGVLASVSRRYAHRIPFLVKLNHNETLSYPNTYDQTLYASVEQAFNMGAVAVGATIYFGSEESRRQIEEISAAFERAHELGMVTVLWAYLRNSAFKKDGVDYHVSADLTGQANHLAATIGADIVKQKMAENNGGYKAINYGYTDDRVYSKLTSENPIDLVRYQLANCYMGRAGLINSGGAAGGETDLSDAVRTAVINKRAGGMGLILGRKAFKKSMADGVKLINAVQDVYLDSKITIA
notes: Class I fructose bisphosphate aldolase FbaB, E. coli, UniProt A0A037Y4V8; 350 amino acids, calculated monomer 38.1 kDa; Decamer in solution by SAXS; also called Class I Fba; copies: 10
B3: inorganic pyrophosphatase (PPase) from E. coli (enzyme)
chain: SLLNVPAGKDLPEDIYVVIEIPANADPIKYEIDKESGALFVDRFMSTAMFYPCNYGYINHTLSLDGDPVDVLVPTPYPLQPGSVIRCRPVGVLKMTDEAGEDAKLVAVPHSKLSKEYDHIKDVNDLPELLKAQIAHFFEHYKDLEKGKWVKVEGWENAEAAKAEIVASFERAKNK
notes: inorganic pyrophosphatase, E. coli; Hexamer in solution by SAXS

Columns and labels:
[1] = target: the molecule itself; assay: SEC + AUC; GadA at pH 4.6: 100 mM Na-acetate, 10 mM NaCl, 1 mM DTT pH 4.6; SEC on Superdex 200 10/300 GL, load 5 mg/ml; sedimentation velocity at 20°C, 0.4 mg/ml
[2] = target: the molecule itself; assay: SEC + AUC; GadA at pH 7.5: Tris-HCl, 10 mM NaCl, 1 mM DTT pH 7.5; SEC on Superdex 200 10/300 GL, load 5 mg/ml; sedimentation velocity at 20°C, 0.4 mg/ml
[3] = target: the molecule itself; assay: SAXS; solution scattering of the single protein, standard 50 mM Tris pH 7.5 buffer, 10°C, four concentrations 1.4-10.8 mg/ml; GadA stored in 100 mM Na-acetate, 10 mM NaCl, 1 mM DTT pH 4.6 and raised to pH 7.5 immediately before; oligomers from molecular mass, rigid-body modelling and OLIGOMER fits

Protein | stoichiometry N [1] | stoichiometry N [2] | stoichiometry N [3]
B1 | 6 | 2 | –
B2 | – | – | 10
B3 | – | – | 6
